For this assay, the target named is extracellular domain (residues Q18 to S740) of human ACE2 fused with human IgG1 Fc (human) (UniProt Q9BYF1). The assay is described as follows: BLI.
Chain of UniProt Q9BYF1 (Q9BYF1 18-740): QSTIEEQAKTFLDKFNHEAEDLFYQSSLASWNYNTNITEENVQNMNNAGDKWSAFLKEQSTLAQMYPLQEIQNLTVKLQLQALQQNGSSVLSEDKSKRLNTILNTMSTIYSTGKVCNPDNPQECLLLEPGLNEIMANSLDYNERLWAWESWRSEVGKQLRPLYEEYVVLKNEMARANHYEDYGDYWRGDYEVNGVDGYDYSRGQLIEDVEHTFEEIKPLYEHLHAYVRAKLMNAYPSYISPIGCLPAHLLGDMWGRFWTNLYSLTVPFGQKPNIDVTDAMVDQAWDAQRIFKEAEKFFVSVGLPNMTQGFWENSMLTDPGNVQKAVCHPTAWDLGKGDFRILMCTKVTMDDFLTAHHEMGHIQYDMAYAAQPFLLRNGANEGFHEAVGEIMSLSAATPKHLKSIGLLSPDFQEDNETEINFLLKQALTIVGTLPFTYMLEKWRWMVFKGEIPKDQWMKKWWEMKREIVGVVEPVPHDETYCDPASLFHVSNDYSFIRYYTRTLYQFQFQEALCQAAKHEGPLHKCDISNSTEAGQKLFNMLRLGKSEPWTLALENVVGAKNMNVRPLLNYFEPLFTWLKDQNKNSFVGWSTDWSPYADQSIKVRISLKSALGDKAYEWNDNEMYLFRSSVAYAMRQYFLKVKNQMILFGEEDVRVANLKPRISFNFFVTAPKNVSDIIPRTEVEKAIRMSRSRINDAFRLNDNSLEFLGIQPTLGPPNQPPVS

Broadly, the Kd is the free concentration of one partner at which half of the binding sites on the other are occupied at equilibrium, for simple one-to-one binding. A low value points to tighter binding. As usually defined, the koff is a measure of how fast the partners let go of each other. The term kon denotes a measure of how fast the partners come together. Low values mean slow association, high ones fast association. On to “yeast-derived monomeric RBD of SARS-CoV-2 (residues 320-550, C-terminal 6x His-tag) (domain or fragment)”, for which the Kd was 9.07 nM, the koff came to 0.00239 s⁻¹ and the on-rate (kon) worked out at 264000 M⁻¹ s⁻¹.

The values are drawn from paper PMC8372230.
